Assay results taken from PMC5575937.
Numbering of substitutions follows the chain as printed.

T1: ETV62C-red (Mus musculus (murine), UniProt P97360 329-446, C334S;A393C;V437C)
T1 sequence: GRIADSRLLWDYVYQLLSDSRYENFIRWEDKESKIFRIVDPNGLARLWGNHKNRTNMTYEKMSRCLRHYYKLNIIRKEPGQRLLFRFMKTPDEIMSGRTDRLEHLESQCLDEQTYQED

T2: ETV6H432R (Mus musculus (murine), UniProt P97360 329-446, C334S;H432R)
T2 sequence: T1 sequence with C65A, H104R, C109V

T3: ETV6RAE (Mus musculus (murine), UniProt P97360 329-446, C334S;H432R;S435A;Q436E)
T3 sequence: T1 sequence with C65A, H104R, S107A, Q108E, C109V

B1: 15-bp ETS consensus duplex (dsDNA)
DNA 1: CAAGCCGGAAGTGAG
DNA 2: CTCACTTCCGGCTTG
B2: 23-bp ETS consensus duplex (dsDNA)
DNA 1: CGGCCAAGCCGGAAGTGAGTGCC
DNA 2: GGCACTCACTTCCGGCTTGGCCG

How the values were obtained:
ETV62C-red = target: T1, ETV62C-red; test: NMR
ETV6H432R = target: T2, ETV6H432R; test: EMSA
ETV6RAE = target: T3, ETV6RAE; test: EMSA

Binder	binding result (ETV62C-red)	Kd (ETV6H432R) [nM]	Kd (ETV6RAE) [nM]
B1	binds		
B2		30 ± 10	90 ± 10
